Protein stability index data for 19 sequences are collected here from the supplement of paper PMC10567573.

The data set in a line: protein stability index of a GFP-peptide fusion (GPS, HEK-293T) (PSI 1-6); higher = more stable. The note with it: c terminus: a fixed tail appended.

± gives the standard deviation.
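Further: 24-mer peptide tiles fused after GFP, lentivirally expressed, FACS-sorted into six equal bins by GFP/DsRed ratio, decoded by Illumina sequencing, PSI is the read-weighted mean bin number.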

Regarding MSLLHLGALYGITLIPTCKFYTWL [SCD], the protein stability index stood at 3.01 ± 0.57 (treatment: DMSO) and 3.74 ± 0.94 (treatment: MLN4924 1 uM, 8 h).

Turning to FTKETTQKNFNNLYGTKGNYTSRV [TRIM29], the protein stability index reads like this: (treatment: DMSO) 2.26 ± 0.42; (treatment: MLN4924 1 uM, 8 h) 2.61 ± 0.27.

ESRKSKRRNSEFEIFVDCDINREQ [TPH1]: the protein stability index reads like this: (treatment: DMSO) 4.85 ± 0.31; (treatment: MLN4924 1 uM, 8 h) 4.92 ± 0.59.

As for TSSPAIWKFPVPVLKTSRSTPLSP [KLHL13], the protein stability index came to 3.19 ± 0.21 (treatment: DMSO) and 3.32 ± 0.086 (treatment: MLN4924 1 uM, 8 h).

As to RFRRFRFQEAAGPREALSRLQELC [ZNF263], the protein stability index amounted to 2.6 ± 0.48 (treatment: DMSO) and 2.58 ± 0.45 (treatment: MLN4924 1 uM, 8 h).

On to QLRGQLQDLDSRLRAGSSEFDSEH [RASAL3], for which the protein stability index by setting is: (treatment: DMSO) 4.71 ± 0.41; (treatment: MLN4924 1 uM, 8 h) 4.9 ± 0.46.

Turning to LQTDHYAALLGSNSESWGWDIGRG [SPSB2], the protein stability index runs as follows: (treatment: DMSO) 3 ± 0.032; (treatment: MLN4924 1 uM, 8 h) 3.02 ± 0.13.

Turning to RVQSVDFMRTDPVCQKLLLDAMNY [KLHL14], the protein stability index reads like this: (treatment: DMSO) 2.74 ± 0.2; (treatment: MLN4924 1 uM, 8 h) 2.64 ± 0.22.

For CKDFLCQFCAQRFGRKDHLTRHTK [PLAGL1], the protein stability index (treatment: DMSO) is 2.63 ± 0.25 and the protein stability index (treatment: MLN4924 1 uM, 8 h) was found to be 3.09 ± 0.64.

With DLISKSFQGSQGRAYLFNSVVNVG [YPEL3], the protein stability index by setting is: (treatment: DMSO) 2.16 ± 0.22; (treatment: MLN4924 1 uM, 8 h) 2.11 ± 0.19.

Regarding PSGSLENGTKADGKDAKTTNGHGG [TRIM29], the protein stability index (treatment: DMSO) was determined as 5.26 ± 0.45 and the protein stability index (treatment: MLN4924 1 uM, 8 h) turned out to be 5.58 ± 0.35.

Regarding VIDAEPFIRCSLQCRDLVDEAKKF [KLHL12], the protein stability index was determined as 2.58 ± 0.46 (treatment: DMSO) and 2.35 ± 0.065 (treatment: MLN4924 1 uM, 8 h).

In the case of MDIKNSPSSLNSPSSYNCSQSILP [ESR2], the protein stability index is 3.8 ± 0.19 (treatment: DMSO) and 3.93 ± 0.29 (treatment: MLN4924 1 uM, 8 h).

As for LARADLEMQIENLKEELAYLKKNH [KRT17], the protein stability index (treatment: DMSO) was found to be 3.12 ± 0.35 and the protein stability index (treatment: MLN4924 1 uM, 8 h) worked out at 3.21 ± 0.45.

With DFVMSLTFPFKILGDSGLGPWQLN [P2RY14], the protein stability index runs as follows: (treatment: DMSO) 3 ± 0.56; (treatment: MLN4924 1 uM, 8 h) 3.08 ± 0.74.

GPQLEGEKDWGLEGYVWRGSQLED [ZSWIM9]: the protein stability index by setting is: (treatment: DMSO) 4.52 ± 0.23; (treatment: MLN4924 1 uM, 8 h) 4.45 ± 0.28.

On to YLEVAKHFKPHGFSSDKAKAGSSE [ATF4], for which the protein stability index came out at 3.97 ± 0.092 (treatment: DMSO) and 4.24 ± 0.33 (treatment: MLN4924 1 uM, 8 h).

With KEKANSLKNEIQEVEELDNWQPAV [SPATS1], the protein stability index turned out to be 5.24 ± 0.2 (treatment: DMSO) and 5.25 ± 0.27 (treatment: MLN4924 1 uM, 8 h).

On to PNTYYEGGYFKARLKFPIDYPYSP [CDC34], for which the protein stability index was determined as 2.32 ± 0.17 (treatment: DMSO) and 2.39 ± 0.21 (treatment: MLN4924 1 uM, 8 h).
